Experiment: soluble fraction after stress (log2 fold change); higher = more stays soluble; pooled small domains, quantitative proteomics
Conditions: stress: 50 degC
How it was run: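 Each library was heated to 50°C as a stress step. The libraries, made up of small protein domains, were pooled and analysed at high throughput by quantitative proteomics. The reported value is the base-two logarithm of the fold change in each protein's soluble amount after stress, taken as a measure of aggregation propensity. The higher the value, the more protein stays in solution.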

“HMSNYIVELSSSEKIDDIDNNNNLINSFFSKSDSQWEYKLVFKNKNEMDVFVKKISTNNKIISYKTSS” and “HMVEREYRLEVPPEAEGKRLDQFLVNQPVQLSRSQVQHLIQNGLVLVNAKTRRSSYRVHTGDIIEMQVPA” are within 0.2 log units of each other in “soluble fraction (log2)” value: 0.149 for the first, 0.327 for the second.

First: HMGSTATVIASRLNMRASASTTGALLTKIPNGATVTVLGTTGAWSHIRYGSYTGYVMSQYLRING
Second: HMGRFPSLTPVVIDALTAQYREHPGWTVQLHVDNLRVVLAANQTPLPSYPTIRRYLLAQGMRRQTRP
The “soluble fraction (log2)” value of the first is higher: -0.203 for the first, -0.426 for the second.

“HMGASALTEREREVLRLLEGGGSDKRIARQLAISEHGVRYHLKSIYKKLGVHDRVSAIAAGRRLAS” and “HMDHKTKLQEVLQKSGDVFIEYRLIKEEGPAHERIFWIEVYVDDQLIGTGQGKSKKLAEQAAAENALAALE” are within 0.2 log units of each other in “soluble fraction (log2)” value: -0.21 for the first, -0.252 for the second.

“HMSTKRQKELLEYVDRFITEHGYGPSYREIMNAIGYKSVSTVAIHIDGLIAKGYLRKRDNSARSLEVV” and “HMSDGHLIKVLEVLDGGEAFLGRTANGGTARFSLGQLADIRRGSVVFVSEDRWEVVPDSAWPEI” are within 0.2 log units of each other in “soluble fraction (log2)” value: -0.716 for the first, -0.528 for the second.

Compared with “HMIPEGKWMEDPISEGQIKFIETLIKQAIDSGQDALGAEAKQYLSSGEATKGNASSMIDKLKDAL”, “HMTMNYFIIENNQQVGPLTLEQLVARNITSDTLVWKEGMEDWQPAWKVDELHTVLDQIRANAEQ” is lower in “soluble fraction (log2)” value: 0.243 for the first, -0.0599 for the second.

“HMDFPYISGIEIAAIKNREFIRIETDKAQEIAIALDKSGIPFSARFSDAEMVLTYDGSYKEQVEDIIAKA” and “HMQVVVEKSKEKVIISGNQYYIHIVKKGETAFSIAKAYGITVDELVKNNPSAATVLKEGQALRIPVVE” are within 0.2 log units of each other in “soluble fraction (log2)” value: -0.0417 for the first, 0.119 for the second.

“HMSSIGERISDVRKARGYTQDQLAERIHVSRQTISHWENERALPDFESIKQLSQVLGYDFSS” and “HMIEQEQAFLEQVLKKYSQEELVLTVGSRTLVKYSAGQLERLLEHYPHVRLASSPVNGEAGFLLSRG” are within 0.2 log units of each other in “soluble fraction (log2)” value: -0.00328 for the first, -0.0933 for the second.

“HMRDADRYAFMQENVEDFAKDMRRKHMTYDVLYEEYIRRTDNPYGYTQFKAIVQEYEKNHDYK” and “HMGPDTVDRTRRFKWVDNEVVVNFGKNAGRTLRDLAENDPGFLRWIVRSDFSDEVRTIANDALMGKFPTRK” are within 0.2 log units of each other in “soluble fraction (log2)” value: -0.141 for the first, 0.00109 for the second.

Going from “HMLNLNEAEKSIYVLIKKNESNNLNKVKEDSNLSNKAWDKGIKNLVKNNLVKVVKSNEGLFIQLV” to “HMLGKNEAKEYKVAYGDIGKMPALIMGLVPLPKPPVVDERLRTLYVTATPEQHREIEAIMNRI”, the “soluble fraction (log2)” value rises from -0.345 to 0.156.

Going from “HMIAALEGKQAMVLDQVSLHHGQVKLGGEVWTARPLNDQDVYEPGDRVTVMRIDGATAVVWRN” to “HMADLKVGFVHRAGSVLERELDDVLEALEMYRSALAIDPSHKPSLDALTRISQLADYREQAAEILEPLPR”, the “soluble fraction (log2)” value falls from -0.281 to -0.576.

“HMIDQNEDLLSGYIDEVLSQNPDKVNEYLKGKSGLIGFFMGQIKQKSATALDAALLKSQLETALEKLRIK” and “HMLNLNILTDKEKFIAKLISRGLSDSLIAKELYISISTVRSHVNSIYGKTNIKNRSHLASSFLYFELGNLL” are within 0.2 log units of each other in “soluble fraction (log2)” value: 0.059 for the first, -0.135 for the second.

“HMFVTGTTIKKLREEKRMTQGELAQMIGVSDKAVSKWETGRGLPDISLLEPLSRALGISVAELFAGQH” and “HMNEQVAVVSGSQVNVRSGPGTTSAVVGQVSKGDNLPVLNQSGDWYQIKLPGGNAGWVAGWLVSLRPTT” are within 0.2 log units of each other in “soluble fraction (log2)” value: -0.0392 for the first, -0.0873 for the second.

Going from “HMGNIALAIARFREMIAEDPNLQPVRLHLAMALMADHQDEAARGQLEKLRSDQLPDDIRKIVDDALAALR” to “HMSVLQGLIESFKAGDRNLYEVAERLNVTEPFLAEALKDYRARFPKGVQVDNFWISFRPYLTIAEV”, the “soluble fraction (log2)” value falls from -1.13 to -1.41.

“HMSTRLIGEIGVVTKDLGAGLKENGSIQIGREEWPAETKDMEHIPMGTRVKVIHIEGTRLVVEA” and “HMDKTTIKNEQKKQILIFAEMNLFFKAKDVAELLGLQASRARYLLQELVKDGKIQGIGNNKGRKYQLI” are within 0.2 log units of each other in “soluble fraction (log2)” value: -0.629 for the first, -0.438 for the second.

“HMEAGLRMPEQLTAFSALALLQKVRDSGPLTDAQKEQLDADVLRIEASHFGKADREALELEEILKQWLSRV” and “HMSQSMEVLYTDLTDKDAAAIVEKLEEEKIPYQLEDQGTTILVPPGVKYTTRLKLAAEDLPKG” are within 0.2 log units of each other in “soluble fraction (log2)” value: -0.135 for the first, 0.000352 for the second.

Going from “HMHDYTTIIGVIELRLNKISYDNVQKRYRIGRSGISLIMERYRDSGLSLDDLKQMPAEKVVNLIYPKD” to “HMSKSVEQRRQQIVAWVKEHGQSQVEDLAVRFATSEVTIRKDLAALSQQGLLIRQFGGAVPVPA”, the “soluble fraction (log2)” value rises from -0.954 to -0.661.

First: HMELEKIRPDLDGLEIMAILGISPSPIVGRAYQYLLDLRMDRGPLGPDAAKAELLNWWSLNQPK
Second: HMQKLLGPFEDFVKIKLDKYPDTKAAQMHDWLKEHYPDFPEVTPKTVYNFVMYVRQRHNIPIPD
The “soluble fraction (log2)” value of the first is lower: -1.3 for the first, -0.0276 for the second.

“HMTPKVAVPSFVGWKFEDVERQLGTMGLIRGKVDNHPSEEYSEGRVIWQSVLGEVEKGKVIDFWVSTGPE” and “HMYSINKTEFGERIKSAREELKMTQTQLAQLLKTSQTTVAKYEHGEQIPRADVLATISKATGKSTDWLLFG” are within 0.2 log units of each other in “soluble fraction (log2)” value: -0.0362 for the first, -0.017 for the second.

Going from “HMENEFEAYSDGSSIQLNDPSKATYVVFDRQGRLLHLFQNHSLSSLSIERKNQILIITRETADGVSVKKIV” to “HMQAATGVVTASVLNIRQGPGTNYTKVGSLLKGAQVEIVGQNGAWSKIRLKSGITGWVNSSYLKTST”, the “soluble fraction (log2)” value rises from -0.415 to -0.0664.

Going from “HMRPSGEAVNAAYRLLKGANPSGNEGDLIQRAQEVAAILPKLNRSSAAAFAKDAKANGLTQAETIALWKGS” to “HMTSKTLSAVEGEGLRLDKFLSNQLPELSRTKIQKMINDGLVFVNNTEAKASLILDGSEFIAYTVPD”, the “soluble fraction (log2)” value falls from 0.225 to -0.0541.

Going from “HMRTYEHALTEEEKELILIVSNLSEYKSLPPSQIVPKLADLGIYIASESSFYRVLRAHNQLHHRGR” to “HMKLVESALSILEEAVDRDFHGNLGDAARYFDIPYQTIYSWLKSRKRVPSLRALEPVLEKLGVSFTT”, the “soluble fraction (log2)” value rises from -2.56 to -0.896.

“HMGMVDKSMYSRYDVGDLVKVLRGPLEGSEGHITEINTDTGTVKVETVFFGRSTVVEVDFSEIDK” and “HMSDIATLVPGPTDAELAASALRGLDAALDADTPVRLSLGEPGGEVEVPRSVLAALARVLDSFAHGEGVTL” are within 0.2 log units of each other in “soluble fraction (log2)” value: -0.281 for the first, -0.136 for the second.

Compared with “HMESPLEQLTNRELQTLQMLGKGLSTKQIAAQLNLSVKTVETYRENLKRKLNLDSGSELIRYAIHRSNE”, “HMNSTRAPYLLDFEEDAAIREARRAGLVPRIARQPSGEPVGRVILQSHDYDYPMKRGDTILITISSG” is lower in “soluble fraction (log2)” value: 0.469 for the first, -0.737 for the second.

“HMHQKELLNLSYKEAKRYILDDFERVFFTNLLRKTGGNVSRAAQLAQVHRKNLYVKLTELGIDPRQFG” and “HMSGSILVQVSATDLNIRKGPGTNYGTTGKYTGKGTFTIVETRSGQGSNAGWGKLKSGAGWISLDYAKR” are within 0.2 log units of each other in “soluble fraction (log2)” value: -1.43 for the first, -1.38 for the second.

Going from “HMGAYPENSLLKERGQSAVYLIQENRKRLFFNAEAFLINGYNWKDIQVVDDLSKILTGKVIYAK” to “HMPPRFVPATGADLRRWLDVSGLTAEAAGDLLGVSGARFRQWLSRYRSAPLPDPVRALLVALLRP”, the “soluble fraction (log2)” value rises from -2.76 to -0.155.

Compared with “HMSPVKAPLPGVVLDIHVSVGQEVKASDTVVTLEAMKMENAIKAGVDGKVASISVGKGDSVLEGAVLLTI”, “HMDVTDRLARRLQGLRSAQGLSLDALAARSGVSRSNISLIERGQSSPTATVLDKLSAALGVTLAALFEEP” is lower in “soluble fraction (log2)” value: 0.0738 for the first, -0.474 for the second.

Compared with “HMINVLTPKQIEATTIAVKYGYYENPRTVSMRELSEISGIARSTLQEHLSKAEAALMILAAKSQL”, “HMNSTSGIAGVGYWINQYRKKKGMSPVDKKSPLVRRVYDWVQEQYDEGRITIISDAELTRQTELAMEA” is lower in “soluble fraction (log2)” value: -0.338 for the first, -0.771 for the second.

For “HMGGEPVSARVPDTLHGARLDATAAALFPDFSRSRLAEWIKAGRLRRNDQPAKPRDKVAVDDHLLLIPEY”, the “soluble fraction (log2)” value was 0.0696.

Source: the domain aggregation screens of Martell et al. (2025)
